The values below come from patent publication US20250262210A1 (TRUSTEES OF COLUMBIA UNIVERSITY IN THE CITY OF NEW YORK, published 2025).

One assay deals with T1, LZTR1 R810W-FLAG (human, UniProt Q8N653 1-840).
T1 construct: Stably expressed in U87 cells by lentivirus; also called LZTR1-FLAG-R810W; LZTR1 RW; not shown: FLAG tag
T1 sequence (looked up): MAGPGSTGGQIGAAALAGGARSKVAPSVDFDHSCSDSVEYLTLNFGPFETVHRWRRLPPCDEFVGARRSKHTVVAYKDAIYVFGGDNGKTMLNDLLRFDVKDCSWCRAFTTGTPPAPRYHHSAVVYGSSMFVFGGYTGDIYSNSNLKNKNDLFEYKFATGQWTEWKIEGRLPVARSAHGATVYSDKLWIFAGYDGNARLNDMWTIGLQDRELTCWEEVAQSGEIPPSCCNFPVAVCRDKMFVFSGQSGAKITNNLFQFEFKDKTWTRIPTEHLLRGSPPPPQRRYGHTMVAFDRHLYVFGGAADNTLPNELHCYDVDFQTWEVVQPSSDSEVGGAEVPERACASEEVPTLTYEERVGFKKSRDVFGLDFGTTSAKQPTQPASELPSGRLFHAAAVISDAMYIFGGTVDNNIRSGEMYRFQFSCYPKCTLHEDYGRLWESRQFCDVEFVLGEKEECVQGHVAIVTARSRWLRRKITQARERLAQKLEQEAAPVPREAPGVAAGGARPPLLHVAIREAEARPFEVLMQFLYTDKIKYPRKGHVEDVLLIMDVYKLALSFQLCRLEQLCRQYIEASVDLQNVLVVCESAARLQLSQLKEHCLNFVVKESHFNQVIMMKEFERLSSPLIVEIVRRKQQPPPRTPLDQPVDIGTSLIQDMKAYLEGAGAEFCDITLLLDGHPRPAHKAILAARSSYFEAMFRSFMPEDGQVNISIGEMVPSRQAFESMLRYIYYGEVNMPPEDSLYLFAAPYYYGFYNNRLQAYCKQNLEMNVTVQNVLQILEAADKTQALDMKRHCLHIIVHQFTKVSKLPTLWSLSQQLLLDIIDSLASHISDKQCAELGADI
Briefly: IP/MS, LZTR1 R810W-FLAG, U87. The protocol:
(§1) Lysates were immunoprecipitated with FLAG affinity matrix and eluted with FLAG peptide. […] Protein gel slices were excised and in-gel digestion performed as previously described (83), with minor modifications. Gel slices were washed with 1:1 A cetonitrile and 100 mM ammonium bicarbonate for 30 min then dehydrated with 100% acetonitrile for 10 min until shrunk. The excess acetonitrile was then removed and the slices dried in speed-vacuum at room temperature for 10 min. Gel slices were reduced with 5 mM DTT for 30 min at 56° C. in an air thermostat, cooled down to room temperature, and alkylated with 11 mM IAA for 30 min with no light. Gel slices were then washed with 100 mM of ammonium bicarbonate and 100% acetonitrile for 10 min each. Excess acetonitrile was removed and dried in a speed-vacuum for 10 min at room temperature and the gel slices were re-hydrated in a solution of 25 ng/μl trypsin in 50 mM ammonium bicarbonate for 30 min on ice and digested overnight at 37° C. in an air thermostat. Digested peptides were collected and further extracted from gel slices in extraction buffer (1:2 ratio by volume of 5% formic acid:acetonitrile) at high speed, shaking in an air thermostat. The supernatants from both extractions were combined and dried in a speed-vacuum. Peptides were dissolved in 3% acetonitrile/0.1% formic acid. Desalted peptides were injected in an EASY-Spray™ PepMap™ RSLC C18 50 cm×[…] column (Thermo Scientific) connected to an Orbitrap Fusion™ Tribrid™ (Thermo Scientific) as described in “Global ubiquitylation enrichment” section. The following modifications were used for protein identification and quantification: oxidation of methionine (M), acetylation of the protein N-terminus, and deamination for asparagine or glutamine (NQ). Results obtained from MaxQuant were assembled in Scaffold for data visualization.

The target of another assay is T2, LZTR1-FLAG (human, UniProt Q8N653 1-840).
T2 construct: Expressed in HEK 293T, HeLa or U87 cells; used as cell lysate; also called LZTR1 wild type-FLAG; LZTR1 WT; not shown: FLAG tag at the C-terminus
T2 sequence (looked up): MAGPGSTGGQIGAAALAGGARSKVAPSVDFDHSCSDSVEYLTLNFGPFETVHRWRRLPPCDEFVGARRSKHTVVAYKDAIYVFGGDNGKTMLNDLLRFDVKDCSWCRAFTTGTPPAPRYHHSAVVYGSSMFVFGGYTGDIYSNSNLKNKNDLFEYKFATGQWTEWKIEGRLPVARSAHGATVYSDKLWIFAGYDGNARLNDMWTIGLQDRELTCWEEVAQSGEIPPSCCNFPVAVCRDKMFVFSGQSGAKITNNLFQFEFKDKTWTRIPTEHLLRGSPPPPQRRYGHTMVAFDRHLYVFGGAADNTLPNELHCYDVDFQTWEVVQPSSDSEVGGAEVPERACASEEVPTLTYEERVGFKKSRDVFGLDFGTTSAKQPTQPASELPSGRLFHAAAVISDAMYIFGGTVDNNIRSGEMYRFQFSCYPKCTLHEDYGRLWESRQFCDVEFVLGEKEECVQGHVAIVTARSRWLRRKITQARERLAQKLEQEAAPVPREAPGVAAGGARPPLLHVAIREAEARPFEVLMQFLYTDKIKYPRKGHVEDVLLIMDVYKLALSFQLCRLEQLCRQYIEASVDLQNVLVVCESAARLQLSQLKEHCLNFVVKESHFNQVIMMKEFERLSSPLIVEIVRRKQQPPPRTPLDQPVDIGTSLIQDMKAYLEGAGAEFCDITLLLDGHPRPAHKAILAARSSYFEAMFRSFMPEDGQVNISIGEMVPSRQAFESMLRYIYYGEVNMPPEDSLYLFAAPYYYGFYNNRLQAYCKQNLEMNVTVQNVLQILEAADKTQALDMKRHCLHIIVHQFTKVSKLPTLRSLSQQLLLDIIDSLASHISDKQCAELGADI
The assay can be described thus: IP/MS, LZTR1 wild type-FLAG, U87. The method, then:
as §1

B1: ADAM 15 (other, human, UniProt Q13444 207-863, looked up)
chain: DVVTETKTVELVIVADHSEAQKYRDFQHLLNRTLEVALLLDTFFRPLNVRVALVGLEAWTQRDLVEISPNPAVTLENFLHWRRAHLLPRLPHDSAQLVTGTSFSGPTVGMAIQNSICSPDFSGGVNMDHSTSILGVASSIAHELGHSLGLDHDLPGNSCPCPGPAPAKTCIMEASTDFLPGLNFSNCSRRALEKALLDGMGSCLFERLPSLPPMAAFCGNMFVEPGEQCDCGFLDDCVDPCCDSLTCQLRPGAQCASDGPCCQNCQLRPSGWQCRPTRGDCDLPEFCPGDSSQCPPDVSLGDGEPCAGGQAVCMHGRCASYAQQCQSLWGPGAQPAAPLCLQTANTRGNAFGSCGRNPSGSYVSCTPRDAICGQLQCQTGRTQPLLGSIRDLLWETIDVNGTELNCSWVHLDLGSDVAQPLLTLPGTACGPGLVCIDHRCQRVDLLGAQECRSKCHGHGVCDSNRHCYCEEGWAPPDCTTQLKATSSLTTGLLLSLLVLLVLVMLGASYWYRARLHQRLCQLKGPTCQYRAAQSGPSERPGPPQRALLARGTKQASALSFPAPPSRPLPPDPVSKRLQAELADRPNPPTRPLPADPVVRSPKSQGPAKPPPPRKPLPADPQGRCPSGDLPGPGAGIPPLVVPSRPAPPPPTVSSLYL
notes: Printed as ADAM 15; read as ADAM15
With B1, the binding result with LZTR1 R810W-FLAG and with LZTR1-FLAG was “binds” each time.

B2: AMOTL2 (other, human, UniProt Q9Y2J4 1-779, looked up)
chain: MRTLEDSSGTVLHRLIQEQLRYGNLTETRTLLAIQQQALRGGAGTGGTGSPQASLEILAPEDSQVLQQATRQEPQGQEHQGGENHLAENTLYRLCPQPSKGEELPTYEEAKAHSQYYAAQQAGTRPHAGDRDPRGAPGGSRRQDEALRELRHGHVRSLSERLLQLSLERNGARAPSHMSSSHSFPQLARNQQGPPLRGPPAEGPESRGPPPQYPHVVLAHETTTAVTDPRYRARGSPHFQHAEVRILQAQVPPVFLQQQQQYQYLQQSQEHPPPPHPAALGHGPLSSLSPPAVEGPVSAQASSATSGSAHLAQMEAVLRENARLQRDNERLQRELESSAEKAGRIEKLESEIQRLSEAHESLTRASSKREALEKTMRNKMDSEMRRLQDFNRDLRERLESANRRLASKTQEAQAGSQDMVAKLLAQSYEQQQEQEKLEREMALLRGAIEDQRRRAELLEQALGNAQGRAARAEEELRKKQAYVEKVERLQQALGQLQAACEKREQLELRLRTRLEQELKALRAQQRQAGAPGGSSGSGGSPELSALRLSEQLREKEEQILALEADMTKWEQKYLEERAMRQFAMDAAATAAAQRDTTLIRHSPQPSPSSSFNEGLLTGGHRHQEMESRLKVLHAQILEKDAVIKVLQQRSRRDPGKAIQGSLRPAKSVPSVFAAAAAGTQGWQGLSSSERQTADAPARLTTDRAPTEEPVVTAPPAAHAKHGSRDGSTQTEGPPDSTSTCLPPEPDSLLGCSSSQRAASLDSVATSRVQDLSDMVEILI
In the case of B2, the binding result in the assay with LZTR1 R810W-FLAG and with LZTR1-FLAG was “binds” in each case.

B3: ARAF (other, human, UniProt P10398 1-606, looked up)
chain: MEPPRGPPANGAEPSRAVGTVKVYLPNKQRTVVTVRDGMSVYDSLDKALKVRGLNQDCCVVYRLIKGRKTVTAWDTAIAPLDGEELIVEVLEDVPLTMHNFVRKTFFSLAFCDFCLKFLFHGFRCQTCGYKFHQHCSSKVPTVCVDMSTNRQQFYHSVQDLSGGSRQHEAPSNRPLNELLTPQGPSPRTQHCDPEHFPFPAPANAPLQRIRSTSTPNVHMVSTTAPMDSNLIQLTGQSFSTDAAGSRGGSDGTPRGSPSPASVSSGRKSPHSKSPAEQRERKSLADDKKKVKNLGYRDSGYYWEVPPSEVQLLKRIGTGSFGTVFRGRWHGDVAVKVLKVSQPTAEQAQAFKNEMQVLRKTRHVNILLFMGFMTRPGFAIITQWCEGSSLYHHLHVADTRFDMVQLIDVARQTAQGMDYLHAKNIIHRDLKSNNIFLHEGLTVKIGDFGLATVKTRWSGAQPLEQPSGSVLWMAAEVIRMQDPNPYSFQSDVYAYGVVLYELMTGSLPYSHIGCRDQIIFMVGRGYLSPDLSKISSNCPKAMRRLLSDCLKFQREERPLFPQILATIELLQRSLPKIERSASEPSLHRTQADELPACLLSAARLVP
Turning to B3, in the assay with LZTR1 R810W-FLAG, the binding result is given as “binds”.

B4: APEH (other, human, UniProt P13798 1-732, looked up)
chain: MERQVLLSEPEEAAALYRGLSRQPALSAACLGPEVTTQYGGQYRTVHTEWTQRDLERMENIRFCRQYLVFHDGDSVVFAGPAGNSVETRGELLSRESPSGTMKAVLRKAGGTGPGEEKQFLEVWEKNRKLKSFNLSALEKHGPVYEDDCFGCLSWSHSETHLLYVAEKKRPKAESFFQTKALDVSASDDEIARLKKPDQAIKGDQFVFYEDWGENMVSKSIPVLCVLDVESGNISVLEGVPENVSPGQAFWAPGDAGVVFVGWWHEPFRLGIRFCTNRRSALYYVDLIGGKCELLSDDSLAVSSPRLSPDQCRIVYLQYPSLIPHHQCSQLCLYDWYTKVTSVVVDVVPRQLGENFSGIYCSLLPLGCWSADSQRVVFDSAQRSRQDLFAVDTQVGTVTSLTAGGSGGSWKLLTIDQDLMVAQFSTPSLPPTLKVGFLPSAGKEQSVLWVSLEEAEPIPDIHWGIRVLQPPPEQENVQYAGLDFEAILLQPGSPPDKTQVPMVVMPHGGPHSSFVTAWMLFPAMLCKMGFAVLLVNYRGSTGFGQDSILSLPGNVGHQDVKDVQFAVEQVLQEEHFDASHVALMGGSHGGFISCHLIGQYPETYRACVARNPVINIASMLGSTDIPDWCVVEAGFPFSSDCLPDLSVWAEMLDKSPIRYIPQVKTPLLLMLGQEDRRVPFKQGMEYYRALKTRNVPVRLLLYPKSTHALSEVEVESDSFMNAVLWLRTHLGS
Consider B4, for which the binding result with LZTR1 R810W-FLAG and in the assay with LZTR1-FLAG was “binds” throughout.

B5: AHR (other, human, UniProt P35869 11-848, looked up)
chain: ASRKRRKPVQKTVKPIPAEGIKSNPSKRHRDRLNTELDRLASLLPFPQDVINKLDKLSVLRLSVSYLRAKSFFDVALKSSPTERNGGQDNCRAANFREGLNLQEGEFLLQALNGFVLVVTTDALVFYASSTIQDYLGFQQSDVIHQSVYELIHTEDRAEFQRQLHWALNPSQCTESGQGIEEATGLPQTVVCYNPDQIPPENSPLMERCFICRLRCLLDNSSGFLAMNFQGKLKYLHGQKKKGKDGSILPPQLALFAIATPLQPPSILEIRTKNFIFRTKHKLDFTPIGCDAKGRIVLGYTEAELCTRGSGYQFIHAADMLYCAESHIRMIKTGESGMIVFRLLTKNNRWTWVQSNARLLYKNGRPDYIIVTQRPLTDEEGTEHLRKRNTKLPFMFTTGEAVLYEATNPFPAIMDPLPLRTKNGTSGKDSATTSTLSKDSLNPSSLLAAMMQQDESIYLYPASSTSSTAPFENNFFNESMNECRNWQDNTAPMGNDTILKHEQIDQPQDVNSFAGGHPGLFQDSKNSDLYSIMKNLGIDFEDIRHMQNEKFFRNDFSGEVDFRDIDLTDEILTYVQDSLSKSPFIPSDYQQQQSLALNSSCMVQEHLHLEQQQQHHQKQVVVEPQQQLCQKMKHMQVNGMFENWNSNQFVPFNCPQQDPQQYNVFTDLHGISQEFPYKSEMDSMPYTQNFISCNQPVLPQHSKCTELDYPMGSFEPSPYPTTSSLEDFVTCLQLPENQKHGLNPQSAIITPQTCYAGAVSMYQCQPEPQHTHVGQMQYNPVLPGQQAFLNKFQNGVLNETYPAELNNINNTQTTTHLQPLHHPSEARPFPDLTSSGFL
Consider B5, for which the binding result with LZTR1 R810W-FLAG and with LZTR1-FLAG was “binds” each time.
